Reference: US8450280B2, “Activation of peptide prodrugs by hK2” (GenbSpera, Inc., priority 1999, dated 2013)
Starred links: 1 amine or outer side, 2 acyl side, 3 side chain; linkers in the order of their positions; H or OH if unused. Non-standard residues stand in square brackets, D forms with d. Residues, ends and D or L forms follow the SMILES beside them. No end group written: not given here. CO = O=C([*:1])[*:2]

Legend:
[1] = molecular target: T1, hK2 (Homo sapiens, UniProt P20151); assay: Inhibition of hK2 by protease inhibitors (substrate H-Pro-Phe-Arg-AMC); type: biochemical; details: for inhibition at 100 µM: inhibitor 100 μM (highest recommended working concentration), 90 μM peptide substrate; for remaining activity at 100 µM: inhibitor 100 μM
T1 construct: made in house
Protocol: Activity of hK2 (1.6 pmol) was monitored using the substrate H-Pro-Phe-Arg-AMC (SEQ ID NO: 55) (90 μM). Inhibitors, at commonly used concentrations, and hK2 (8.3 nM) were mixed and proteolysis of 90 μM H-Pro-Phe-Arg-AMC (SEQ ID NO: 55) was followed up to 20 minutes, starting directly or 10 minutes after mixing the enzyme with various inhibitors. Inhibition was evaluated by comparison with […] controls.
The proteolytic activity is expressed in percentage of inhibitor-free control after 10 minutes of incubation.
Therefore, PPACK can be used to obtain fast irreversible inhibition of hK2.

[2] = molecular target: T1, hK2; assay: Hydrolysis of hK2 substrates by hK2; type: biochemical; details: Table 5; hK2 1 μg/ml, 50 mM Tris, 0.1 M NaCl, pH 7.8
Protocol: (§1) Hydrolyses of particular hK2 substrates were carried out at a hK2 concentrations of 1 μg/ml in 50 mM Tris buffer, with 0.1 M NaCl, at pH 7.8. Serum hydrolysis measurements were carried out in 50% fresh human serum in 50 mM Tris buffer, with 0.1 M NaCl, at pH 7.8. The single letter amino acid code was used to designate the peptide sequences used for Table 4. The units FU are arbitrary fluorescence units. The entries “U.D.” were for measurements of less than 0.01 FU/hour.

[3] = Serum hydrolysis of hK2 substrates; type: in vitro ADME; details: Table 5; 50% fresh human serum in 50 mM Tris, 0.1 M NaCl, pH 7.8
Protocol: as §1

[4] = 10 minutes of incubation, 8.3 nM hK2, 90 μM substrate, read-out: Activity (%) of hK2, percentage of inhibitor-free control
[5] = inhibitor 5 μM, 10 minutes of incubation, 8.3 nM hK2, 90 μM substrate

T1 sequence (P20151 25-261): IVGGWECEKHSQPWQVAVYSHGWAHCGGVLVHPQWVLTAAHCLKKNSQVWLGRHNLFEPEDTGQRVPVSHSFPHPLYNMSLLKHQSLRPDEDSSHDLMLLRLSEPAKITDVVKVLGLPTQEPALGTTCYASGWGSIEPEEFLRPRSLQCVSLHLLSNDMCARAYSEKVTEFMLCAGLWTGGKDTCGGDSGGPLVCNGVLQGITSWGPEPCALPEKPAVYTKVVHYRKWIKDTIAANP

Compound | hK2 Hydrolysis Rate [2] | Serum Hydrolysis Rate [3] | also measured
CC(C)[C@H](NC(=O)[C@H](CCCNC(=N)N)NC(=O)N[C@@H](Cc1ccccc1)C(=O)O)C(=O)N[C@H](C=O)CCCNC(=N)N [Antipain, antipain] ({Phe-CO}-Arg-Val-Arg-aldehyde) | – | – | inhibition at 100 µM [1]: ~90%; remaining activity at 100 µM [1, 4]: 33%; remaining activity at 500 µM ([1]; inhibitor 500 μM, 10 minutes of incubation, 8.3 nM hK2, 90 μM substrate, read-out: Activity (%) of hK2, percentage of inhibitor-free control): 10%
Cl.N=C(N)c1ccccc1 [Benzamidine, Benzamidine hydrochloride] | – | – | concentration required for efficient inhibition of hK2 [1]: above 20 mM; remaining activity at 5000 µM ([1]; inhibitor 5000 μM, 10 minutes of incubation, 8.3 nM hK2, 90 μM substrate, read-out: Activity (%) of hK2, percentage of inhibitor-free control): 27%; remaining activity at 20000 µM ([1]; inhibitor 20,000 μM, 10 minutes of incubation, 8.3 nM hK2, 90 μM substrate, read-out: Activity (%) of hK2, percentage of inhibitor-free control): 8%
CC(=O)N[C@@H](CC(C)C)C(=O)N[C@@H](CC(C)C)C(=O)N[C@H](C=O)CCCNC(=N)N [Leupeptin, leupeptin] | – | – | inhibition of hK2 (in words) ([1]; 8 nM hK2, 90 μM substrate): only weakly inhibited; inhibition at 100 µM [1]: ~60%; remaining activity at 100 µM [1, 4]: 12%
NC(N)=NCCC[C@H](NC(=O)[C@@H]1CCCN1C(=O)[C@H](N)Cc1ccccc1)C(=O)CCl [PPACK] | – | – | inhibition of hK2 (in words) ([1]; 5 μM concentration, irreversible): inhibited hK2 rapidly; Activity (%) of hK2, percentage of inhibitor-free control [1, 5]: 0%
Aprotinin | – | – | inhibition of hK2 (in words) ([1]; 8 nM hK2, 90 μM substrate): not to be good hK2 inhibitor; Activity (%) of hK2, percentage of inhibitor-free control [1, 5]: 10%; Activity (%) of hK2, percentage of inhibitor-free control ([1]; inhibitor 30 μM, 10 minutes of incubation, 8.3 nM hK2, 90 μM substrate): 33%
PSTI: protease inhibitor present in the prostate (DSLGREAKCYNELNGCTKIYDPVCGTDGNTYPNECVLCFENRKRQTSILIQKSGPC) | – | – | inhibition of hK2 (in words) ([1]; 8 nM hK2, 90 μM substrate): inhibited hK2 weakly; Activity (%) of hK2, percentage of inhibitor-free control ([1]; inhibitor 0.08 μM, 10 minutes of incubation, 8.3 nM hK2, 90 μM substrate): 100%; Activity (%) of hK2, percentage of inhibitor-free control ([1]; inhibitor 4 μM, 10 minutes of incubation, 8.3 nM hK2, 90 μM substrate): 89%
SEQ ID NO: 104: hK2 substrate peptide, single letter sequence P6-P′1 (GGKAQRL; listed as Homo sapiens) | 2233.7 FU/hr/m | 0.04 FU/hr | –
SEQ ID NO: 105: hK2 substrate peptide, single letter sequence P6-P′1 (GGKARRL; listed as Homo sapiens) | 2171.2 FU/hr/m | UD (The entries “U.D.” were for measurements of less than 0.01 FU/hour) | –
SEQ ID NO: 106: hK2 substrate peptide, single letter sequence P6-P′1 (GGKQRRL; listed as Homo sapiens) | 2171.2 FU/hr/m | 0.02 FU/hr | –
SEQ ID NO: 107: hK2 substrate peptide, single letter sequence P6-P′1 (GGKHRRL; listed as Homo sapiens) | 2079.2 FU/hr/m | UD (The entries “U.D.” were for measurements of less than 0.01 FU/hour) | –
SEQ ID NO: 108: hK2 substrate peptide, single letter sequence P7-P′1 (GHEQARRL; listed as Homo sapiens) | 1956.4 FU/hr/m | 0.14 FU/hr | –
SEQ ID NO: 109: hK2 substrate peptide, single letter sequence P6-P′1 (GGKAKRL; listed as Homo sapiens) | 1788.9 FU/hr/m | 0.14 FU/hr | –
SEQ ID NO: 110: hK2 substrate peptide, single letter sequence P7-P′1, dL at P′1 (GHEQKRR[dL]; listed as Homo sapiens) | 1690.9 FU/hr/m | 0.15 FU/hr | –
SEQ ID NO: 111: hK2 substrate peptide, single letter sequence P6-P′1 (GGKARRS; listed as Homo sapiens) | 1609.6 FU/hr/m | UD (The entries “U.D.” were for measurements of less than 0.01 FU/hour) | –
SEQ ID NO: 112: hK2 substrate peptide, single letter sequence P6-P′1 (GGKARKL; listed as Homo sapiens) | 1602.4 FU/hr/m | UD (The entries “U.D.” were for measurements of less than 0.01 FU/hour) | –
SEQ ID NO: 113: hK2 substrate peptide, single letter sequence P7-P′1 (GHEQKRRE; listed as Homo sapiens) | 1473.8 FU/hr/m | UD (The entries “U.D.” were for measurements of less than 0.01 FU/hour) | –
SEQ ID NO: 114: hK2 substrate peptide, single letter sequence P6-P′1 (GGKAHRL; listed as Homo sapiens) | 1287.4 FU/hr/m | 0.10 FU/hr | –
SEQ ID NO: 115: hK2 substrate peptide, single letter sequence P6-P′1 (GGKANRL; listed as Homo sapiens) | 1113.9 FU/hr/m | 0.01 FU/hr | –
SEQ ID NO: 116: hK2 substrate peptide, single letter sequence P6-P′1 (GGKARQL; listed as Homo sapiens) | 1021.9 FU/hr/m | 0.13 FU/hr | –
SEQ ID NO: 117: hK2 substrate peptide, single letter sequence P6-P′1 (GGKARHL; listed as Homo sapiens) | 939.3 FU/hr/m | UD (The entries “U.D.” were for measurements of less than 0.01 FU/hour) | –
SEQ ID NO: 118: hK2 substrate peptide, single letter sequence P6-P′1 (GGKARNL; listed as Homo sapiens) | 828.4 FU/hr/m | 0.25 FU/hr | –
SEQ ID NO: 119: hK2 substrate peptide, single letter sequence P6-P′1, dR at P2 (GGKA[dR]RL; listed as Homo sapiens) | 494.4 FU/hr/m | 0.06 FU/hr | –
SEQ ID NO: 120: hK2 substrate peptide, single letter sequence P6-P′1 (GGKAKKL; listed as Homo sapiens) | 77.9 FU/hr/m | UD (The entries “U.D.” were for measurements of less than 0.01 FU/hour) | –
SEQ ID NO: 121: hK2 substrate peptide, single letter sequence P6-P′1 (GGKAHKL; listed as Homo sapiens) | 73.2 FU/hr/m | UD (The entries “U.D.” were for measurements of less than 0.01 FU/hour) | –
SEQ ID NO: 123: hK2 substrate peptide, single letter sequence P6-P′1, dR at P2 and P1 (GGKA[dR][dR]L; listed as Homo sapiens) | 16.5 FU/hr/m | UD (The entries “U.D.” were for measurements of less than 0.01 FU/hour) | –
